Measured values taken from publication PMC5015263, “Casitas B-lineage lymphoma linker helix mutations found in myeloproliferative neoplasms affect conformation” (BMC Biology, 2016).
Changes are numbered by the printed parent chain. Numbers in names are those of the source.

B1: His-GST-N-Cbl wild-type (residues 47-435) (domain or fragment, UniProt P22681 47-435, looked up)
chain: PPGTVDKKMVEKCWKLMDKVVRLCQNPKLALKNSPPYILDLLPDTYQHLRTILSRYEGKMETLGENEYFRVFMENLMKKTKQTISLFKEGKERMYEENSQPRRNLTKLSLIFSHMLAELKGIFPSGLFQGDTFRITKADAAEFWRKAFGEKTIVPWKSFRQALHEVHPISSGLEAMALKSTIDLTCNDYISVFEFDIFTRLFQPWSSLLRNWNSLAVTHPGYMAFLTYDEVKARLQKFIHKPGSYIFRLSCTRLGQWAIGYVTADGNILQTIPHNKPLFQALIDGFREGFYLFPDGRNQNPDLTGLCEPTPQDHIKVTQEQYELYCEMGSTFQLCKICAENDKDVKIEPCGHLMCTSCLTSWQESEGQGCPFCRCEIKGTEPIVVDPFD
notes: Cbl (c-Cbl), N-terminal fragment with TKBD, linker helix region and RING domain (N-Cbl), residues 47-435; Modified pGEX4T1 with N-terminal His-GST tag followed by a thrombin or TEV cleavage site; tag not cleaved for SPR; also called WT; wild-type N-Cbl; not shown: His, N-terminal, kept; GST, N-terminal, kept
B2: His-GST-N-Cbl Y371F (residues 47-435) (domain or fragment, UniProt P22681 47-435, looked up)
chain: B1 chain with Y325F
notes: Cbl (c-Cbl), N-terminal fragment with TKBD, linker helix region and RING domain (N-Cbl), residues 47-435; Tag not cleaved for SPR; not shown: His, N-terminal, kept; GST, N-terminal, kept
B3: His-GST-pTyr371-N-Cbl Y368F (residues 47-435) (domain or fragment, UniProt P22681 47-435, looked up)
chain: B1 chain with Y322F
modifications: phosphotyrosine at 371
notes: Cbl (c-Cbl), N-terminal fragment with TKBD, linker helix region and RING domain (N-Cbl), residues 47-435; Y368F is required for homogeneous phosphorylation at Tyr371; also called pY371 Y368F; source: generated as described previously [6]; not shown: His, N-terminal, kept; GST, N-terminal, kept
B4: His-GST-N-Cbl Y371D (residues 47-435) (domain or fragment, UniProt P22681 47-435, looked up)
chain: B1 chain with Y325D
notes: Cbl (c-Cbl), N-terminal fragment with TKBD, linker helix region and RING domain (N-Cbl), residues 47-435; mutation identified in MDS/MPN clinical samples; Tag not cleaved for SPR; not shown: His, N-terminal, kept; GST, N-terminal, kept
B5: His-GST-N-Cbl Y371C (residues 47-435) (domain or fragment, UniProt P22681 47-435, looked up)
chain: B1 chain with Y325C
notes: as for B4
B6: His-GST-N-Cbl Y371S (residues 47-435) (domain or fragment, UniProt P22681 47-435, looked up)
chain: B1 chain with Y325S
notes: as for B4
B7: His-GST-N-Cbl Y368F (residues 47-435) (domain or fragment, UniProt P22681 47-435, looked up)
chain: B1 chain with Y322F
notes: as for B2
B8: His-GST-N-Cbl Y371E (residues 47-435) (domain or fragment, UniProt P22681 47-435, looked up)
chain: B1 chain with Y325E
notes: as for B2
B9: His-GST-N-Cbl Y371A (residues 47-435) (domain or fragment, UniProt P22681 47-435, looked up)
chain: B1 chain with Y325A
notes: as for B2
B10: His-GST-N-Cbl M222E (residues 47-435) (domain or fragment, UniProt P22681 47-435, looked up)
chain: B1 chain with M176E
notes: as for B2
B11: His-GST-N-Cbl Y371H (residues 47-435) (domain or fragment, UniProt P22681 47-435, looked up)
chain: B1 chain with Y325H
notes: as for B4

The binders below were run against T1, UbcH5B S22R C85K–Ub (UniProt P62837 1-147; P0CG47 1-76, S22R | C85K, conjugated to Ub via an isopeptide bond (non-hydrolyzable amide linkage) | conjugated to UbcH5B via an isopeptide bond) (assay: SPR; GST-Cbl variants coupled to CM-5 chips; UbcH5B–Ub as analyte at 0–120 μM; Biacore T200). Conditions: both partners purified.
T1 construct: E2 ubiquitin-conjugating enzyme UbcH5B; ubiquitin (Ub); also called UbcH5B–Ub; E2–Ub; source: expressed, generated and purified as described previously [7]

Row | Kd [µM] | Binder
1 | 84 | B1
2 | 84 | B2
3 | 2.6 | B3
4 | 10 | B4
5 | 36 | B5
6 | 16 | B6
7 | 49 | B7
8 | 9 | B8
9 | 30 | B9
10 | 14 | B10
11 | 39 | B11
